# In patent US20190336574A1 (TRUSTEES OF PRINCETON UNIVERSITY, published 2019):
# Positions count from the first letter of the chain named.
# T1: murine SND1 R255E (shRNA-resistant construct) (mouse, UniProt Q78PY7 1-910)
# T1 sequence (looked up): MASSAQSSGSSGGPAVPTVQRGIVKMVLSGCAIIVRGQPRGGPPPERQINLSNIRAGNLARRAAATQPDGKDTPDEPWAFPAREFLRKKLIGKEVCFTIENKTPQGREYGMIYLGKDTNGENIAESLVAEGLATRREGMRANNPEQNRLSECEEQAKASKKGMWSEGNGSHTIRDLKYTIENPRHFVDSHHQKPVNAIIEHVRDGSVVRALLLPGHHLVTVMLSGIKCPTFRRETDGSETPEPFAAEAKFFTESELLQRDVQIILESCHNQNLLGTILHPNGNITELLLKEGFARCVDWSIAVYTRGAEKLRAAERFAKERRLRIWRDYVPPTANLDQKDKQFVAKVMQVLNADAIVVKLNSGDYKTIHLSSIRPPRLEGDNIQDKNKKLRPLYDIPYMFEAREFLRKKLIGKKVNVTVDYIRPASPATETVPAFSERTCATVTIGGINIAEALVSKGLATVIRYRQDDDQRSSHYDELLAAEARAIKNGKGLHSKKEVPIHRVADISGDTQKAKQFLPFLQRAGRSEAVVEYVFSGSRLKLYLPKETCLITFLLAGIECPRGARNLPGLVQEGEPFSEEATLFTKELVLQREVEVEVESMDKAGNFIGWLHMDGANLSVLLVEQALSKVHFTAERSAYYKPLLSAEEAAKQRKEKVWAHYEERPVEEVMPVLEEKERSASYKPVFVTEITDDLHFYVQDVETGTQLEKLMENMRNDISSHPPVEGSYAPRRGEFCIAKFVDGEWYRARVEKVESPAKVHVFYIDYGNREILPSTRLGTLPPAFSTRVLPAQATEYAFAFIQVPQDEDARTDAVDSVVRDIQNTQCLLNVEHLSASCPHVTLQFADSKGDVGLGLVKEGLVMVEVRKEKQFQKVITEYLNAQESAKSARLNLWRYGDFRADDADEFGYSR
# T2: murine SND1 F250A (shRNA-resistant construct) (mouse, UniProt Q78PY7 1-910)
# T2 sequence (looked up): T1 sequence (looked up) with F250A, E255R
# T3: murine SND1, wild type (mouse, UniProt Q78PY7 1-910)
# T3 construct: Endogenous protein of murine PyMT mammary tumor cells; also called SND1 (in PyMT tumor cells); WT shRNA-resistant murine SND1
# T3 sequence (looked up): T1 sequence (looked up) with E255R
# B1: murine MTDH, wild type (other, mouse, UniProt Q80WJ7 1-579, looked up)
# chain: MAARSWQDELAQQAEEGSARLRELLSVGLGFLRTELGLDLGLEPKRYPGWVILVGTGALGLLLLFLLGYGWAAACAGARKKRRSPPRKREEAAPPTPAPDDLAQLKNLRSEEQKKKNRKKLPEKPKPNGRTVEVPEDEVVRNPRSITAKQAPETDKKNEKSKKNKKKSKSDAKAVQNSSRHDGKEVDEGAWETKISHREKRQQRKRDKVLTDSGSLDSTIPGIENIITVTTEQLTTASFPVGSKKNKGDSHLNVQVSNFKSGKGDSTLQVSSRLNENLTVNGGGWSEKSVKLSSQLSEEKWNSVPPASAGKRKTEPSAWTQDTGDTNANGKDWGRNWSDRSIFSGIGSTAEPVSQSTTSDYQWDVSRNQPYIDDEWSGLNGLSSADPSSDWNAPAEEWGNWVDEDRASLLKSQEPISNDQKVSDDDKEKGEGALPTGKSKKKKKKKKKQGEDNSHTQDTEDLEKDTREELPVNTSKARPKQEKACSLKTMSTSDPAEVLIKNSQPVKTLPPAISAEPSITLSKGDSDNSSSQVPPMLQDTDKPKSNAKQNSVPPSQTKSETNWESPKQIKKKKKARRET
# notes: Re-expressed by lentivirus in PyMT;Mtdh-/- tumor cells; also used for the endogenous protein of PyMT;Mtdh+/+ cells (same protein); also called mouse MTDH; WT MTDH (murine form)
# How the values were obtained:
# [1] = target: T1, murine SND1 R255E (shRNA-resistant …); experiment: co-IP (anti-MTDH) from SND1-KD PyMT;Mtdh+/+ tumor cells reconstituted with SND1 constructs, western blot
# [2] = target: T2, murine SND1 F250A (shRNA-resistant …); experiment: as above
# [3] = target: T3, murine SND1, wild type; experiment: anti-MTDH co-IP from PyMT;Mtdh-/- tumor cells reconstituted with murine MTDH, western blot
# Procedure: (FIG. 23A) Lysates from PyMT;Mtdh−/− tumor cells reconstituted with vector control, WT or mutant murine MTDH were immunoprecipitated with anti-MTDH antibody and immunoblotted for indicated proteins. Note all amino acid annotations are based on human MTDH. W394 and W401 of human MTDH correspond to W391 and W398 in murine MTDH, respectively. (FIG. 23B) Mammosphere assays were performed with PyMT;Mtdh−/− tumor cells reconstituted with indicated MTDH constructs. (FIG. 23C-E) In vivo tumor formation (FIG. 23C for tumor incidence; FIG. 23D, FIG. 23E for tumor volumes) were performed at limiting numbers using PyMT;Mtdh−/− tumor cells reconstituted with indicated WT or mutant MTDH. Statistics: (FIG. 23B) Student's t-test. Data represent mean±SEM. (FIG. 23C) Limiting dilution analysis. (FIG. 23D, FIG. 23E) Mann-Whitney test. **p<0.01, *p<0.05.
# Immunoprecipitation and western blot: For in vivo immunoprecipitation (IP) experiments, cultured cells were washed in cold PBS and lysed in lysis buffer (20 mM Tris pH 7.4, 0.15 M NaCl, 1 mM EDTA, 1 mM EGTA, 1% Tx-100, 0.0025 M Na2P2O7, 1 mM β-glycerolphosphate, 1 mM Na3VO4, and 1 mM NaF) with an EDTA-free protease inhibitor mixture (Roche Applied Science) and PMSF. Cell lysates were then incubated on ice for 10 min, centrifuged, and precleared by incubating with protein A/G beads (Santa Cruz Biotechnology) for 1 h at 4° C. […]
binder,measurement,setting,value
B1,binding result,[1],no binding
same,binding result,[2],no binding
same,binding result,[3],binds
